The test system of data set [1] is GST-IL11(A) fusion protein [GST: P08515].
Data set [2] relates to GST-IL11(LV-) fusion protein [GST: P08515].
Data set [3] concerns GST-IL6 fusion protein [GST: P08515].
The subject of data set [4] is GST-Thymosin β4 fusion protein [GST: P08515].
The next data set has as its system T1, His-IL11 fusion protein.
T1 sequence: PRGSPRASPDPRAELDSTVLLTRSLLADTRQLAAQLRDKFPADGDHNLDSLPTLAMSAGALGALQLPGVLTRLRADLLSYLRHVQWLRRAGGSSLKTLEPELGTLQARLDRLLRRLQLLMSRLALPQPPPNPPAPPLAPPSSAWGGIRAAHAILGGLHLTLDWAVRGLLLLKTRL

The subject of data set [5] is MBP-IL11 fusion protein [MBP: P0AEX9].

human thrombin: in data set [1], the “thrombin cleavage of the fusion protein, SDS-PAGE time course” value (“thrombin cleavage of the fusion protein” for short) is “The GST fusion partner was efficiently cleaved by both bovine and human thrombin in the concentration ranges and the time points tested”.

In the case of thrombin (species not stated), in data set [1], the “choice of cleavage site within the linker” value was “thrombin cleavage occurs not at Arg↓Gly but at Arg↓Ala”. Also, the “integrity of released IL-11, MALDI-TOF/MS” value in data set [1] was “it was confirmed that intact IL-11 protein was generated after thrombin cleavage of GST-IL11(A)”. For the same substance, the “thrombin cleavage of the fusion protein” value in data set [2] is “The fusion protein GST-IL11(LV-) (44 kDa) gradually disappeared, and the amount of IL-11(LV-) (18 kDa) increased as reaction time passed”; in data set [3] it was “The fusion protein GST-IL6 (46 kDa) gradually disappeared, and the amount of IL-6 (22 kDa) increased as reaction time passed”; in data set [4], “The fusion protein GST-Thymosin β4 (31 kDa) gradually disappeared, and the amount of thymosin β4 (5 kDa) increased as reaction time passed”; with His-IL11 fusion protein it was “The fusion protein His-IL11 (22 kDa) gradually disappeared, and the amount of IL11 (18 kDa) increased as reaction time passed”; in data set [5], “The fusion protein MBP-IL11 (60 kDa) gradually disappeared, and the amount of IL11 (18 kDa) increased as reaction time passed”. Also, the “integrity of released thymosin β4, MALDI-TOF/MS” value in data set [4] is reported as “it was confirmed that intact thymosin β4 protein was generated after thrombin cleavage of GST-Thymosin β4”.

Consider bovine thrombin, for which the “thrombin cleavage of the fusion protein” value in data set [1] is “The GST fusion partner was efficiently cleaved by both bovine and human thrombin in the concentration ranges and the time points tested”.
